Measurements taken from PMC8265312.

Assays:
[1] = target: recombinant human GAPDH (human) (UniProt P04406); assay: SPR
[2] = target: endogenous huGAPDH on the surface of dying A549 cells (human (endogenous in A549)) (UniProt P04406); assay: competition of binding to cells, cell-bound PspA detected by immunoblot

“recombinant His-tagged PspA (pneumococcal surface protein A) composed of the αHD and PRD (domain or fragment)” was tested, and the Kd [1] was 2.95 µM and the percent reduction of cell-bound PspA by GAPDH70 [2] was 50%.
